Measurements taken from US20170362314A1 (CANCER RESEARCH TECHNOLOGY, published 2017).

Tests used:
[1] = molecular target: human CXCL12 (soluble ligand in the cell migration assays) (human, UniProt P48061-2 22-89, limits assumed); experiment: cell-based or functional assay
[2] = molecular target: T1, biotinylated CXCL12 (synthesised 68 amino acid CXCL12) (human, UniProt P48061 22-89, biotinylated (site not stated)); experiment: affinity constant for human CXCL12, Fab format; method not restated; comparison with WO 2008/018641; method not restated
T1 construct: also called SDF-1
T1 sequence (P48061 22-89 limits assumed): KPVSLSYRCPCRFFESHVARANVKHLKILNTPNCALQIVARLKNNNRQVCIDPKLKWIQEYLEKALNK

[3] = molecular target: T1, biotinylated CXCL12 (synthesised 68 …); experiment: SPR (Biacore T100), Fab over biotinylated CXCL12 immobilised on a streptavidin chip, 1:1 Langmuir binding model [panel B table]
Procedure: (§1) FIG. 3. Affinity measurement of anti-CXCL12 antibodies using SPR A) Sensograms of multiple concentrations of lead and parental anti-CXCL12 Fabs binding to biotinylated CXCL12 immobilised on a streptavidin chip (carboxymethylated dextran matrix pre-immobilised with streptavidin). […] The equilibrium dissociation constant (KD) of the parent clone 093_2D06 was calculated using steady state binding model due to its very fast off-rate. […] The binding constants of these antibodies were determined using two-state binding model. Biacore T100 evaluation software was used for all calculations.
(§2) The lead anti-CXCL12 antibodies and their parent clones were subjected to a full kinetic analysis to determine the improvement in binding constants after affinity maturation. The binding of the Fab antibodies to biotinylated CXCL12 immobilised on a streptavidin chip was analysed using SPR (FIG. 3). Equilibrium dissociation constants (KD) of these antibodies were determined using a binding model appropriate for each binding interaction (FIGS. 3B and C). […] Such binding profiles are generally associated with binding interactions that involve antibody (or any other analyte) induced conformational change of the ligand resulting in a two-step binding. […]

[4] = molecular target: T1, biotinylated CXCL12 (synthesised 68 …); experiment: SPR: Fab over biotinylated CXCL12 on a streptavidin chip
Procedure: as §1, §2

[5] = molecular target: T1, biotinylated CXCL12 (synthesised 68 …); experiment: SPR (Biacore T100): Fab over biotinylated CXCL12 on a streptavidin chip, 1:1 Langmuir model; SPR kinetic analysis, Fab over biotinylated CXCL12 on streptavidin chip
Procedure: as §1, §2

[6] = molecular target: T1, biotinylated CXCL12 (synthesised 68 …); experiment: SPR (Biacore T100), Fab over biotinylated CXCL12 immobilised on a streptavidin chip, 1:1 Langmuir binding model [Continued) (panel B table]
Procedure: as §1, §2

[7] = molecular target: T1, biotinylated CXCL12 (synthesised 68 …); experiment: SPR (Biacore T100), Fab over biotinylated CXCL12 immobilised on a streptavidin chip, two-state binding model [panel C table]
Procedure: as §1, §2

[8] = molecular target: T1, biotinylated CXCL12 (synthesised 68 …); experiment: SPR (Biacore T100): Fab over biotinylated CXCL12 on a streptavidin chip, two-state binding model; SPR, two-state binding model
Procedure: as §1, §2

[9] = molecular target: T1, biotinylated CXCL12 (synthesised 68 …); experiment: SPR: Fab over biotinylated CXCL12 on a streptavidin chip, two-state binding model
Procedure: as §1, §2

[10] = molecular target: T1, biotinylated CXCL12 (synthesised 68 …); experiment: SPR (Biacore T100), Fab over biotinylated CXCL12 immobilised on a streptavidin chip, two-state binding model [Continued) (panel C table]
Procedure: as §1, §2

human CXCL12 (soluble ligand in the cell migration assays), sequence (P48061 22-89 limits assumed): as above

B1: 114_3H1 IgG (human IgG2) (antibody, V domains shown)
VH: QVQLVQSGAEVKKPGASVKVSCKVSGYTLTELSMHWVRQAPGKGLEWMGGFDPEDGETIYAQKFQGRVTMTEDTSTDTAYMELSSLGSEDTAVYYCARRVWGSYRPNDAFDIWGQGTLVTVSS
VL: DIQMTQSPSSLSASVGDRVTITCRASQSISDYVNWYQQKPGKAPNLLMFAASTSQSGVPSRFTGSGSGTDFTLTISSLQPEDFATYFCQQSYSPPYTFGQGTKVEIKR
[1]
  IC50, transwell migration of TOV-21G cells towards CXCL12 (further replicate experiments): 5 nM

B2: 113_1H12 in a human IgG2 format (antibody, V domains shown)
VH: EVQLVQSGAEVKKPGASVKVSCKTSGYTFTNYGISWVRQAPGQGLEWMGWISAYNGNTNYAQKLQGRVTMTTDTSTSTAYMELRSLRSDDTAVYYCARAGGVYYDYFTDYWGQGTMVTVSS
VL: QSELTQPPSASGTPGQRVTISCSGSRSNIGSNSVNWYQQLPGTAPKLLIYNNDERPSGVPDRFSGSKSGTSASLAISGLQSEDEADYFCAAWDDSLNVGELFGGGTKLTVLG
[1]
  IC50, transwell migration of TOV-21G cells towards CXCL12 (further replicate experiments): 9 nM

B3: 114_3H1 Fab (Fab, V domains shown)
VH: B1 VH
VL: B1 VL
notes: Fab expressed from pBIOCAM-7 in HEK-293F cells, with hexa-histidine and tri-FLAG tags
[2]
  Kd: 2.4 nM
[3]
  kon: 490000 M⁻¹ s⁻¹
[4]
  fold improvement in affinity from its parent clone 093_2D06: 3800 fold
[5]
  Kd: 1 nM
[6]
  koff: 0.00051 s⁻¹

B4: 113_1H12 Fab (Fab, V domains shown)
VH: B2 VH
VL: B2 VL
notes: as for B3
[2]
  Kd: 4.2 nM
[7]
  ka 1: 510000 M⁻¹ s⁻¹
  kd 1: 0.04 s⁻¹
[8]
  Kd: 3.7 nM
[9]
  fold improvement in affinity following light chain shuffling (against its parent clone): 4.5 fold
[10]
  ka 2: 0.015 s⁻¹
  kd 2: 0.00079 s⁻¹
